Test results from patent US20250011363A1, “OPTIMIZED SHORTENED PEPTIDE THAT BINDS TO ACETYLCHOLINE RECEPTOR, AND USE THEREOF” (SKINMED CO., LTD., priority 2021, published 2025).

Biological target: acetylcholine receptor
Assay: SPR, AchR immobilised on CM5 chip, peptide 10 uM

Row | Binding affinity (RU) | Binder
1 | 24 RU | KNENRK [6mer-2-789]
2 | 13 RU | RAEDKR [6mer-2-792]
3 | 28 RU | KTMNRK [6mer-2-781]
4 | 30 RU | RMEMRK [6mer-2-786]
5 | 16 RU | RTHNKR [6mer-2-795]
6 | 27 RU | KNMNRK [6mer-2-791]
7 | 26 RU | KAEWRK [6mer-2-784]
8 | 18 RU | KPWPKR [6mer-2-782]
9 | 19 RU | RIWHKK [6mer-2-787]
10 | 30 RU | KKEKKK [6mer-2-788]
11 | 17 RU | RDTPKK [6mer-2-798]
12 | 32 RU | RMMARR [6mer-2-796]
13 | 13 RU | KAAHRR [6mer-2-779]
14 | 19 RU | KAEMRR [6mer-2-794]
15 | 29 RU | RMHKKR [6mer-2-793]
16 | 32 RU | RDMVRK [6mer-2-783]
17 | 31 RU | KITIRK [6mer-2-780]
18 | 19 RU | RHCIKR [6mer-2-797]
19 | 31 RU | RHCHRR [6mer-2-785]
20 | 23 RU | RCAGRR [6mer-2-790]

Biological target: acetylcholine receptor
Assay: SPR, AchR immobilized on CM5 chip, peptide at 10 uM

Row | Binder | Binding affinity (RU)
21 | RKCNAR [6mer-1-810] | 12 RU
22 | KRMHAK [6mer-1-819] | 17 RU
23 | RKDHMK [6mer-1-812] | 26 RU
24 | KKCNAK [6mer-1-814] | 15 RU
25 | RRPNMK [6mer-1-828] | 26 RU
26 | RKIDFK [6mer-1-816] | 14 RU
27 | RRKKKR [6mer-1-799] | 30 RU
28 | RREHIR [6mer-1-800] | 15 RU
29 | RKKTIR [6mer-1-806] | 12 RU
30 | KRHTGK [6mer-1-823] | 12 RU
31 | KREPIK [6mer-1-822] | 17 RU
32 | RKMKHK [6mer-1-803] | 31 RU
33 | RKYHGR [6mer-1-802] | 32 RU
34 | KRHCHK [6mer-1-811] | 16 RU
35 | RRIHKK [6mer-1-829] | 25 RU
36 | RRDKNR [6mer-1-807] | 13 RU

Row | Binder | Binding affinity (RU)
37 | RRTTNR [6mer-1-821] | 22 RU
38 | RKIKAR [6mer-1-818] | 14 RU
39 | KKMNIK [6mer-1-824] | 12 RU
40 | KKCAVK [6mer-1-801] | 18 RU
41 | KRNDGK [6mer-1-820] | 12 RU
42 | RRIMKR [6mer-1-817] | 16 RU
43 | RREDFK [6mer-1-813] | 15 RU
44 | RRFEMR [6mer-1-815] | 23 RU
45 | KRDPFR [6mer-1-804] | 31 RU
46 | KKKSNR [6mer-1-809] | 12 RU
47 | RRFEKK [6mer-1-808] | 24 RU
48 | KRDTMK [6mer-1-805] | 24 RU
49 | RKKKFR [6mer-1-827] | 30 RU
50 | RKEKWK [6mer-1-825] | 30 RU
51 | KKAHMR [6mer-1-826] | 31 RU

Further lines, results first:

Row | Binding affinity (RU) | Binder
52 | 17 RU | KRNTIR [6mer-1-834]
53 | 30 RU | KKDAPR [6mer-1-841]
54 | 16 RU | KKEAVR [6mer-1-854]
55 | 28 RU | KKKTIK [6mer-1-843]
56 | 17 RU | KRNTWK [6mer-1-838]
57 | 30 RU | KRCNGR [6mer-1-853]
58 | 19 RU | RRYKNR [6mer-1-833]
59 | 15 RU | RKCDVR [6mer-1-855]
60 | 29 RU | KRNWAK [6mer-1-839]
61 | 12 RU | RKYWGK [6mer-1-832]
62 | 30 RU | KRMWFK [6mer-1-856]
63 | 19 RU | KRDHAK [6mer-1-837]
64 | 23 RU | KKIDKK [6mer-1-845]
65 | 11 RU | RRFANK [6mer-1-842]
66 | 19 RU | KRASVK [6mer-1-852]
67 | 30 RU | RRYMEK [6mer-1-851]
68 | 12 RU | RKICNK [6mer-1-840]
69 | 19 RU | RKTMFK [6mer-1-848]
70 | 20 RU | KKYNHK [6mer-1-847]
71 | 33 RU | KKTTMK [6mer-1-830]
72 | 28 RU | RKDAEK [6mer-1-846]
73 | 22 RU | RRCMIK [6mer-1-836]
74 | 26 RU | KRTADK [6mer-1-835]
75 | 29 RU | RRNPEK [6mer-1-850]
76 | 21 RU | KKFNWK [6mer-1-849]
77 | 15 RU | KKNPWK [6mer-1-831]
78 | 28 RU | KKPMNR [6mer-1-844]
